Results: US20220017622A1 (Pfizer, published 2022)
Residue numbers refer to the chain shown, from its start. Several values for one entry are separate records, joined by “and”; a condition that tells them apart may be missing. Identical values can stand only once.

T1: human B7-H4 extracellular domain (human, UniProt Q7Z7D3 29-258)
T1 construct: For SPR it says only human B7-H4 ECD; also called Hu B7-H4 ECD; huB7-H4 ECD
T1 sequence: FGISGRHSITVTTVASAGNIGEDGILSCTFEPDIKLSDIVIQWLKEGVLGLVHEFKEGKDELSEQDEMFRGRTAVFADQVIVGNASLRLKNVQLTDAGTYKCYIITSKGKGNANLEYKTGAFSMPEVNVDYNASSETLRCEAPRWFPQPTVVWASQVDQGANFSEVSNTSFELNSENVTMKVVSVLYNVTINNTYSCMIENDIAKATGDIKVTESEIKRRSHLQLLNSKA

T2: human B7-H4 extracellular domain (human, UniProt Q7Z7D3 29-258)
T2 construct: Soluble ECD used as SPR analyte; also called huB7-H4 ECD; huB7-H4
T2 sequence: T1 sequence

B1: B7-H4 antibody 0119 (antibody, human IgG1, kappa, V domains shown)
VH: EVQLLESGGGLVQPGGSLRLSCAASGFTFSSYAMSWVRQAPGKGLEWVSAISGGGGSTYYADSVKGRFTISRDNSKNTLYLQMNSLRAEDTAVYYCARDIQWFGESTLFDYWGQGTLVTVSS
VL: DIQMTQSPSSLSASVGDRVTITCRASQSIRSWLAWYQQKPGKAPKLLIYKASSLEGGVPSRFSGSGSGTDFTLTISSLQPEDFATYYCQQYNSYSRTFGQGTKVEIKR
B2: B7-H4 antibody 0274 (antibody, human IgG1, kappa, V domains shown)
VH: B1 VH
VL: B1 VL with Y36F
B3: B7-H4 antibody 0570 (antibody, human IgG1, kappa, V domains shown)
VH: B1 VH
VL: B1 VL with I29T, G56S, N92G
B4: B7-H4 antibody 0414 (antibody, human IgG1, kappa, V domains shown)
VH: B1 VH
VL: B1 VL with I29T, N92G
B5: B7-H4 antibody 1113 (antibody, human IgG1, kappa, V domains shown)
VH: B1 VH with F103Y
VL: B1 VL with I29T, N92G
B6: B7-H4 antibody 0564 (antibody, human IgG1, kappa, V domains shown)
VH: B1 VH with F103H
VL: B1 VL with M4L, S10T, Y36F, D70E, E81D
B7: B7-H4 antibody 0563 (antibody, human IgG1, kappa, V domains shown)
VH: B1 VH with F103Y
VL: B1 VL with M4L, S10T, Y36F, D70E, E81D
B8: B7-H4 antibody 0565 (antibody, human IgG1, kappa, V domains shown)
VH: B1 VH with E105R
VL: B1 VL with M4L, S10T, Y36F, D70E, E81D
B9: B7-H4 antibody 1116 (antibody, human IgG1, kappa, V domains shown)
VH: B1 VH with F103Y
VL: B1 VL with I29T, Y36H, G56S, N92G
B10: B7-H4 antibody 0562 (antibody, human IgG1, kappa, V domains shown)
VH: B1 VH with Y59Q
VL: B1 VL with M4L, S10T, Y36F, D70E, E81D
B11: B7-H4 antibody 0572 (antibody, human IgG1, kappa, V domains shown)
VH: B1 VH
VL: B1 VL with I29T, Y36L, G56S, N92G
B12: B7-H4 antibody 1115 (antibody, human IgG1, kappa, V domains shown)
VH: B1 VH with F103Y
VL: B1 VL with I29T, G56S, N92G
B13: B7-H4 antibody 0571 (antibody, human IgG1, kappa, V domains shown)
VH: B1 VH
VL: B1 VL with I29T, Y36H, G56S, N92G
B14: B7-H4 antibody 1117 (antibody, human IgG1, kappa, V domains shown)
VH: B1 VH with F103Y
VL: B1 VL with I29T, Y36L, G56S, N92G
B15: B7-H4 antibody 0567 (antibody, human IgG1, kappa, V domains shown)
VH: B1 VH
VL: B1 VL with I29T, W32H, N92G
B16: B7-H4 antibody 1113 (antibody, human IgG1, kappa, V domains shown)
VH: B1 VH with F103Y
VL: B1 VL with I29T, N92G
notes: IgG1 mAb format
B17: B7-H4 antibody 1116 (antibody, human IgG1, kappa, V domains shown)
VH: B1 VH with F103Y
VL: B1 VL with I29T, Y36H, G56S, N92G
notes: IgG1 mAb format
B18: B7-H4 antibody 1115 (antibody, human IgG1, kappa, V domains shown)
VH: B1 VH with F103Y
VL: B1 VL with I29T, G56S, N92G
notes: IgG1 mAb format
B19: B7-H4 antibody 1117 (antibody, human IgG1, kappa, V domains shown)
VH: B1 VH with F103Y
VL: B1 VL with I29T, Y36L, G56S, N92G
notes: IgG1 mAb format
B20: B7-H4 antibody 1080 (antibody, human IgG1, kappa, V domains shown)
VH: EVQLVESGGGLVQPGGSLRLSCAVSGGSFSGYYWNWIRQPPGKGLEWIGEINHSGSATYNPSLKSRVTISVDTAKNSLYLQMNSLRAEDTAVYYCARGLYNWNVDHWGQGTLVTVSS
VL: DIQMTQSPSSLSASVGDRVTITCRASQGIRNDLGWYQQKPGKAPKRLIYAASSLQSGVPSRFSGSGSGTDFTLTISSLQPEDFATYYCLQHNAYPRTFGGGTKVEIKR
notes: IgG1 mAb format
B21: B7-H4 antibody 1081 (antibody, human IgG1, kappa, V domains shown)
VH: B20 VH with N52D, S54Q, A57T, T58K, L78F
VL: B20 VL
notes: IgG1 mAb format
B22: B7-H4 antibody 1083 (antibody, human IgG1, kappa, V domains shown)
VH: B20 VH with V24A, L78F
VL: B20 VL
notes: IgG1 mAb format
B23: B7-H4 antibody 0934 (antibody, human IgG1, kappa, V domains shown)
VH: B20 VH with I37V, P40A
VL: B20 VL with N92S, A93S
notes: IgG1 mAb format
B24: B7-H4 antibody 0385 (antibody, human IgG1, kappa, V domains shown)
VH: QVQLQQWGAGLLKPSETLPLTCAVYGGSFSGYYWNWIRQPPGKGLEWIGEINHSGSATYNPSLKSRVTISVDTSKNHFSLKLSSVTAADTAVYFCARGLYNWNVDHWGQGTLVTVSS
VL: B20 VL with N92Q, A93S
B25: B7-H4 antibody 0270 (antibody, human IgG1, kappa, V domains shown)
VH: B24 VH with P19S, A57T, T58K, V71G, H77Q, S83N, F94Y, A96V, H106S
VL: B20 VL with A50V, A93S, R96Y, G100Q, V104L
B26: B7-H4 antibody 0283 (antibody, human IgG1, kappa, V domains shown)
VH: B24 VH
VL: B20 VL with A93S
B27: B7-H4 antibody 0279 (antibody, human IgG1, kappa, V domains shown)
VH: B20 VH with I37V, P40A, V67F, L78F
VL: B20 VL with D70E, A93S
B28: B7-H4 antibody 0277 (antibody, human IgG1, kappa, V domains shown)
VH: B20 VH with V24A, I37V, P40A, I48V, G49A, V67F, V71R, T73N
VL: B20 VL with D70E, A93S
B29: B7-H4 antibody 0391 (antibody, human IgG1, kappa, V domains shown)
VH: B24 VH
VL: B20 VL with N92A, A93S, R96Y, G100Q, V104L
B30: B7-H4 antibody 0384 (antibody, human IgG1, kappa, V domains shown)
VH: B24 VH
VL: B20 VL with N92S, A93S
B31: B7-H4 antibody 0388 (antibody, human IgG1, kappa, V domains shown)
VH: B24 VH
VL: B20 VL with R96Y, G100Q, V104L
B32: B7-H4 antibody 0383 (antibody, human IgG1, kappa, V domains shown)
VH: B24 VH
VL: B20 VL
B33: B7-H4 antibody 0267 (antibody, human IgG1, kappa, V domains shown)
VH: EVQLVESGGGLVQPGGSLRLSCAASGGSFSGYYWNWVRQAPGKGLEWIGEINHSGSTKYNPSLKSRFTISGDNAKNSFYLQMNSLRAEDTAVYYCVRGLYNWNVDSWGQGTLVTVSS
VL: B20 VL with A50V, D70E, A93S, R96Y, G100Q, V104L
B34: B7-H4 antibody 0386 (antibody, human IgG1, kappa, V domains shown)
VH: B24 VH
VL: B20 VL with N92A, A93S
B35: B7-H4 antibody 0390 (antibody, human IgG1, kappa, V domains shown)
VH: B24 VH
VL: B20 VL with N92Q, A93S, R96Y, G100Q, V104L

Molecular target: T1, human B7-H4 extracellular domain
Experiment: competition ELISA on coated huB7-H4 ECD; competitor biotinylated 0058 (by series, not given)

IC50	Binder
7.52 nM and 13.7 nM	B1
4.2 nM	B2
3.1 nM	B3
6.57 nM and 8 nM	B4
1 nM	B5
35.2 nM	B6
2 nM	B7
22.7 nM	B8
0.16 nM	B9
2.4 nM	B10
1.7 nM	B11
0.42 nM	B12
2.1 nM	B13
0.15 nM	B14
5.4 nM	B15

Molecular target: T2, human B7-H4 extracellular domain
Experiment: SPR 37 C; IgG1 on anti-hFc chip, ECD analyte;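 note: antibodies captured, then B7-H4 ECD injected at five 3-fold dilutions from 300 nM, 65 s association and 600 s dissociation, fitted to a 1:1 Langmuir model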

Kd [nM]	koff [s⁻¹]	kon [M⁻¹ s⁻¹]	Binder
4.31	0.00108	251000	B16
2.05	0.00126	612000	B17
2.62	0.00116	443000	B18
1.54	0.000949	620000	B19
13.8	0.0054	392000	B20
33.4	0.00962	288000	B21
22.6	0.0086	381000	B22
11.8	0.00539	454000	B23

Molecular target: T1, human B7-H4 extracellular domain
Experiment: competition ELISA on coated huB7-H4 ECD; competitor biotinylated 0052 (by series, not given)

IC50	Binder
7.87 nM	B24
9.07 nM	B25
7.2 nM and 12.9 nM	B26
5.94 nM and 14.9 nM	B27
19 nM	B28
13.6 nM	B29
6.91 nM	B30
11.3 nM	B31
7.17 nM	B32
9.42 nM	B33
9.2 nM	B34
15.2 nM	B35
